Test results: patent publication US20200353078A1 (AstraZeneca / MedImmune, published 2020)
Like-named read-outs stand apart in the source and are kept apart here.

T1: His10/Avi Human IL33-01 (human)
T1 construct: Wild type mature IL-33 with N-terminal 10xHis, Avitag and Factor Xa site; biotinylated by BirA on the Avitag where used biotinylated; reduced form unless treated; also called N-terminal His Avi IL-33; His-Avi human IL-33 wild type
T1 chain: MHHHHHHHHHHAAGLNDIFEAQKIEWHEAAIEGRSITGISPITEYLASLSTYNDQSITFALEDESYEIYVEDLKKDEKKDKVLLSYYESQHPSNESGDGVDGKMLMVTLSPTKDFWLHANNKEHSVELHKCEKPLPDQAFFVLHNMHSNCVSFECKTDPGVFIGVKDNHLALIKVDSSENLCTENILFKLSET

T2: Recombinant human IL-33 (construct not named in the example) (human, UniProt O95760 112-270, limits assumed)
T2 construct: also called Recombinant, enzymatically biotinylated human IL-33 (produced in-house); IL-33 (200 nM)
T2 sequence (looked up): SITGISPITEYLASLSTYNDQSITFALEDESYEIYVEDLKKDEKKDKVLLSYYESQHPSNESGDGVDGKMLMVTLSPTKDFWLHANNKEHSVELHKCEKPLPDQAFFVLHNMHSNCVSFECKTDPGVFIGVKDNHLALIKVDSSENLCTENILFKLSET

T3: Endogenous human IL-33 (human, UniProt O95760 1-270, limits assumed)
T3 sequence (looked up): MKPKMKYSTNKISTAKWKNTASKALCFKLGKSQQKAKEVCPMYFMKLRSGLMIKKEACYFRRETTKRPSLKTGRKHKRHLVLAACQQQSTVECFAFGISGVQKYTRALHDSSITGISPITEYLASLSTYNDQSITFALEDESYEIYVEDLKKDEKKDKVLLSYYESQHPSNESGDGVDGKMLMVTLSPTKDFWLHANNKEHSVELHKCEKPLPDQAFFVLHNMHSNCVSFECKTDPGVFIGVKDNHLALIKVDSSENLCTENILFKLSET

B1: 33_640087-7B IgG1 (antibody, V domains shown)
VH: EVQLLESGGGLVQPGGSLRLSCAASGFTFSSYAMSWVRQAPGKGLEWVSGISAIDQSTYYADSVKGRFTISRDNSKNTLYLQMNSLRAEDTAVYYCARQKFMQLWGGGLRYPFGYWGQGTMVTVSS
VL: SYVLTQPPSVSVSPGQTASITCSGEGMGDKYAAWYQQKPGQSPVLVIYRDTKRPSGIPERFSGSNSGNTATLTISGTQAMDEADYYCGVIQDNTGVFGGGTKLTVL
notes: IgG1

Tests used:
His10/Avi Human IL33-01 [1] = biological target: T1, His10/Avi Human IL33-01; assay: HTRF competition: purified IgG against FLAG-His human ST2 for biotinylated IL33-01, overnight incubation
His10/Avi Human IL33-01 [2] = biological target: T1, His10/Avi Human IL33-01; assay: cell-based or functional assay
[3] = biological target: T2, Recombinant human IL-33 (construct not …); assay: KinExA 3200, IgG at 5 pM and 500 fM equilibrated with IL-33, 25 C
Protocol: The affinity of the antibody 33_640087-7B was measured by kinetic exclusion assays performed on the KinExA 3200. The sampling beads were prepared by mixing 200 mg of dry UltraLink Biosupport Azlactone beads with 110 μg of IL-33 (as mentioned previously) in 2.5 ml of 50 mM sodium hydrogen bicarbonate pH 8.4 at room temperature for 2 hours with constant agitation. The beads were rinsed and blocked with 10 mg/ml BSA in 1M Tris pH 8.7. Prior to use, the beads were resuspended into D-PBS, 0.02% sodium azide. 33_640087-7B/IL-33 equilibrium mixtures were prepared in sample buffer composed of 1 mg/ml BSA, 0.02% sodium azide in DPBS (Dulbecco's PBS). […] The fluorescent secondary detection reagent was Alexa Fluor 647 goat anti-human-Fc diluted in 1 mg/ml BSA, 0.02% sodium azide, 0.1% Tween 20 in DPBS. The samples were run on the KinExA whilst housed in a temperature controlled cabinet set at 25° C. The data was analysed using the KinExA Pro software version 4.1.11.

Endogenous human IL-33 = biological target: T3, Endogenous human IL-33; assay: cell-based or functional assay
33_640237-2B IgG1 = biological target: T4, 33_640237-2B IgG1; assay: HTRF: unlabelled test protein competes with biotinylated human IL33-01 for DyLight650 labelled 33_640237-2B IgG
T4 construct: IgG1
Protocol: (§1) Human, cyno and mouse IL-33 FLAG® His (described in Example 1 and Table 21), Human IL-1 alpha and IL-1 beta (R&D Systems) (Table 21) or rat IL-33 (GenScript) were tested for inhibition of human IL-33 binding to DyLight650 labelled 33_640087-7B or DyLight650 labelled 33_640237-2B by adding 5 microlitres of each dilution of sample to a 384 well low volume assay plate (Costar, 3673). […] This was followed by the addition of 2.5 microlitres of a solution containing 0.12 nM biotinylated human IL-33-01 combined with 0.75 nM streptavidin cryptate detection (Cisbio International, 610SAKLB). All dilutions were performed in assay buffer containing 0.8 M potassium fluoride (VWR, 26820.236) and 0.1% bovine serum albumin (BSA, PAA, K05-013) in Dulbeccos PBS (Invitrogen, 14190185). Assay plates were incubated for 4 hours at room temperature followed by 18 hours at 4 degrees Celsius and time resolved fluorescence was read at 620 nm and 665 nm emission wavelengths using an EnVision plate reader (Perkin Elmer). Data were analysed by calculating the 665/620 nm ratio followed by the % Delta F values for each sample. The 665/620 nm ratio was used to correct for sample interference using Equation 1. The % Delta F for each sample was then calculated using Equation 2. The negative control (non-specific binding) was defined by replacing biotinylated human IL-33 combined with streptavidin cryptate detection with streptavidin cryptate detection only. The % Delta F values were subsequently used to calculate % specific binding as described in Equation 3. IC₅₀ values were determined using GraphPad Prism software by curve fitting using a four-parameter logistic equation (Equation 4).

33v20064 IgG1 [4] = biological target: T5, 33v20064 IgG1; assay: HTRF: unlabelled test protein competes with biotinylated human IL33-01 for DyLight labelled 33v20064 IgG
T5 construct: IgG1; also called ZZ1EBX-E05
Protocol: (§2) Human, cyno and mouse IL-33 FLAG® His (described in Example 1) were tested for inhibition of human IL-33 binding to DyLight labelled 33v20064 by adding 5 microlitres of each dilution of IL-33 sample to a 384 well low volume assay plate (Costar, 3673). […] This was followed by the addition of 2.5 microlitres of a solution containing 1.2 nM biotinylated human IL-33-01 combined with 1.5 nM streptavidin cryptate detection (Cisbio International, 610SAKLB). All dilutions were performed in assay buffer containing 0.8 M potassium fluoride (VWR, 26820.236) and 0.1% bovine serum albumin (BSA, PAA, K05-013) in Dulbeccos PBS (Invitrogen, 14190185). Assay plates were incubated for 1 hour at room temperature and time resolved fluorescence was read at 620 nm and 665 nm emission wavelengths using an EnVision plate reader (Perkin Elmer). Data were analysed by calculating the 665/620 nm ratio followed by the % Delta F values for each sample. The 665/620 nm ratio was used to correct for sample interference using Equation 1. The % Delta F for each sample was then calculated using Equation 2. The negative control (non-specific binding) was defined by replacing biotinylated human IL-33 combined with streptavidin cryptate detection with streptavidin cryptate detection only. […] IC₅₀ values were determined using GraphPad Prism software by curve fitting using a four-parameter logistic equation (Equation 4).

33v20064 IgG1 [5] = biological target: T5, 33v20064 IgG1; assay: as above; remark: listed apart in the source
Protocol: as §2

33_640087-7B IgG1 = biological target: B1; assay: HTRF: unlabelled test protein competes with biotinylated human IL33-01 for DyLight650 labelled 33_640087-7B IgG
Protocol: as §1, with “The negative control (non-specific binding) was defined by replacing biotinylated human IL-33 combined with streptavidin cryptate detection with streptavidin cryptate detection only. The % Delta F values were subsequently used to calculate % specific binding as described in Equation 3.” left out

T5 sequence (VL, as listed by the source): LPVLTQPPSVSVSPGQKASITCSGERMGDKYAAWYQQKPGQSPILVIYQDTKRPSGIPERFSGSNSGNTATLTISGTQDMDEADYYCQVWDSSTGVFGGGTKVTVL

| IC50 (read off the curve) (His10/Avi Human IL33-01 [1]) [pM] | IC50 (nM) vs. His Avi IL-33, Huvec IL-8 assay (His10/Avi Human IL33-01 [2]) [nM] | Kd [3] [pM] | IC50, Huvec IL-8 release stimulated by human lung lysate (Endogenous human IL-33) [pM] | IC50 (read off the curve) (33_640237-2B IgG1) [pM] | IC50 (read off the curve) (33v20064 IgG1 [4]) [pM] | IC50 (read off the curve) (33v20064 IgG1 [5]) [pM] | IC50 (read off the curve) (33_640087-7B IgG1) [pM] | Binder |
| --- | --- | --- | --- | --- | --- | --- | --- | --- |
| ~400 | 0.046 | 0.03 | 13 |  |  |  |  | B1 |
|  |  |  |  | ~1000 | ~200000 | ~100000 | ~700 | Human IL-33 Flag®His (ligand, Mature IL-33 with C-terminal FLAG 10xHis tag, from E. coli; biotinylated via free cysteines where used biotinylated; also called Mature Human IL-33_FH; human IL-33 FH) SITGISPITEYLASLSTYNDQSITFALEDESYEIYVEDLKKDEKKDKVLLSYYESQHPSNESGDGVDGKMLMVTLSPTKDFWLHANNKEHSVELHKCEKPLPDQAFFVLHNMHSNCVSFECKTDPGVFIGVKDNHLALIKVDSSENLCTENILFKLSETNPAFLYKVVGAADYKDDDDKAAHHHHHHHHHH |
